Measurements from patent US20230074793A1 (Xencor, published 2023).

Biological target: PD1 (programmed cell death protein 1) (human, UniProt Q15116 25-288)
Test: cell-based or functional assay

PD1 (programmed cell death protein 1), sequence (Q15116 25-288): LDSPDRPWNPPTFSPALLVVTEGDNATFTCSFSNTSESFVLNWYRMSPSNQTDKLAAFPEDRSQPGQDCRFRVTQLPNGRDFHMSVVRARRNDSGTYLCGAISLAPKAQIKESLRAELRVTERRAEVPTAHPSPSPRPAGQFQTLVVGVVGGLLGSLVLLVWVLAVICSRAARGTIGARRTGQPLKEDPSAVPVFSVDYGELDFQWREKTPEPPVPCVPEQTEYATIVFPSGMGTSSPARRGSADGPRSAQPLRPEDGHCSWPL

B1: XmAb®20717 (bispecific antibody, human IgG1, kappa)
heavy: not shown
scFv: EIVLTQSPATLSASPGERVTLTCRASQSVGNDVAWYQQKPGQAPRLLINYASHRYTGVPDRFTGSGYGTEFTLTISSVQSEDFGVYYCQQDFSSPRTFGGGTKVEIKGKPGSGKPGSGKPGSGKPGSEVQLVESGGGLVKPGGSLRLSCVASGFTFSNYWMNWVRQAPGKGLEWVAEIRLYSNNYATHYAESVKGRFTISRDDSKSTLYLQMNNLKTEDTGVYYCTRYYGNYGGYFDVWGRGTLVTVSSEPKSSDKTHTCPPCPAPPVAGPSVFLFPPKPKDTLMISRTPEVTCVVVDVKHEDPEVKFNWYVDGVEVHNAKTKPREEQYNSTYRVVSVLTVLHQDWLNGKEYKCKVSNKALPAPIEKTISKAKGQPREPQVYTLPPSREQMTKNQVKLTCLVKGFYPSDIAVEWESNGQPENNYKTTPPVLDSDGSFFLYSKLTVDKSRWQQGNVFSCSVLHEALHSHYTQKSLSLSPGK
light: not shown
With B1 the “IL-2 secretion (ELISA of culture supernatants) from SEB-stimulated human PBMC treated 24 hours, versus anti-RSV isotype-control bivalent antibody XENP15074” value was 4.1 fold, the “IL-2 secretion (ELISA) from SEB-stimulated human PBMC, versus a mixture of the monovalent component antibodies XENP20111 (anti-PD1 scFv-Fc) and XENP20059 (anti-CTLA4 Fab-Fc)” value was 1.6 fold and the “IL-2 secretion (ELISA) from SEB-stimulated human PBMC, versus the bivalent anti-PD1 antibody XENP16432” value was 1.5 fold.
